Test results taken from patent US20080200416A1.

Key:
[1] = target: agonist MCC I-E^k complex (mouse) (UniProt G3UW40); experiment: cell-based or functional assay
[2] = target: antagonist MCC 99R I-E^k complex (mouse) (UniProt P04224); experiment: cell-based or functional assay
Sequence of antagonist MCC 99R I-E^k complex (mouse) (P04224 26-216, one chain of several): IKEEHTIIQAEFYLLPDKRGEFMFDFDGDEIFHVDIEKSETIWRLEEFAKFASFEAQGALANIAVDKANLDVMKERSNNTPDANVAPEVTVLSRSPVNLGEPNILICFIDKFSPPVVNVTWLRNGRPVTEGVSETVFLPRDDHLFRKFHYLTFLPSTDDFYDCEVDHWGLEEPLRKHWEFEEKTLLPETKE

5C.C7 TCR
half-maximal calcium response (EC50), control T cell blasts [1]: 5 peptides
half-maximal calcium response (EC50), miR-181a T cell blasts [1]: 2 peptides
peak cytosolic calcium response, miR-181a T cell blasts [2]: > 2 fold
